One substance from patent US20230167415A1 can be followed below.

Assay [1] has as its target WNV IS98-ST1 M-I36F/A43G double mutant virions (E protein at the surface, M protein I36F and A43G) (West Nile virus, strain IS98-ST1). The experiment in a line: direct ELISA, coated UV-inactivated virus produced in Vero cells.
For assay [2] the target is unchanged. The experiment in a line: indirect non-competitive ELISA, Vero-produced virus captured by polyclonal anti-WNV, HRP-conjugated 4G2. Background: ELISA stands for enzyme-linked immunosorbent assay.

Substance “Monoclonal antibody (mAb) 4G2 anti-Flavivirus E protein” yielded a fold decrease in recognition compared to wild-type and M-A43G in assay [1] of 1.2 fold. Also, the fold decrease in recognition in assay [2] fell in the range of 1.2 to 2 fold.
